Assays:
[1] = target: T1, 金黄色葡萄球菌肠毒素B (Staphylococcus aureus, UniProt P01552 28-266); assay: direct ELISA, antigen coated, HRP-conjugated nanobody
T1 sequence: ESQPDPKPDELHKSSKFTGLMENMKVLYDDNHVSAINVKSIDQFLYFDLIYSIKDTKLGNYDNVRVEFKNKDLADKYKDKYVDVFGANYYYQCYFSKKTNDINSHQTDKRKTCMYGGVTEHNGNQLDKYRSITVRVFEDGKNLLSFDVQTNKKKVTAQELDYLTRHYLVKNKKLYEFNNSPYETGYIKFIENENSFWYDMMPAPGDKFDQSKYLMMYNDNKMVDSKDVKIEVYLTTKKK

[2] = target: T2, 金黄色葡萄球菌表面蛋白A (Staphylococcus aureus, UniProt P38507 37-477); assay: direct ELISA on coated whole S. aureus (ATCC25923, ATCC29213, ATCC26111), HRP-conjugated nanobody
T2 construct: whole, on cells; also called 葡萄球菌蛋白A; spA

B1: 金黄色葡萄球菌肠毒素A纳米抗体A21 (VHH)
VHH: ESGGGSVQAGGSLRLSCAASRNTYSYCSMGWYRQAPGKERELVSSIKSDDRTVYADSVKGRFTISRGNAKNTVHLLMNSLKPEDTAMYYCTFRCLERSGGETRYWGQGTQVTVS
notes: also called Clone A21; A21克隆
B1: no binding (tested: 500ng/mL) [1]; no binding (tested: 10 7 cfu/mL) [2].

Source: patent CN110577594A (UNIV NORTHWEST A&F, dated 2019)
